Results taken from the supplement of paper PMC10567573.
± gives the standard deviation.

Test: protein stability index of a GFP-peptide fusion (GPS, HEK-293T) (PSI 1-6); higher = more stable
[1] = treatment: DMSO, c terminus: a fixed tail appended
[2] = treatment: MLN4924 1 uM, 8 h, c terminus: a fixed tail appended
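Further: 24-mer peptide tiles fused after GFP, lentivirally expressed, FACS-sorted into six equal bins by GFP/DsRed ratio, decoded by Illumina sequencing, PSI is the read-weighted mean bin number.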

| Sequence | protein stability index [1] | protein stability index [2] | protein stability index (treatment: DMSO, c terminus: native) | protein stability index (treatment: MLN4924 1 uM, 8 h, c terminus: native) |
| --- | --- | --- | --- | --- |
| RAEQDSEVGPQEINKEELEGNSMR [GMCL1] | 5.6 ± 0.26 | 5.63 ± 0.14 | – | – |
| RAQMIRNEYRKLHPVLHKEEKQHL [TRIM43] | 3 ± 0.37 | 3.73 ± 0.2 | – | – |
| RDVALQIHFTLIQAFCCENDINIL [GADD45A] | 2.92 ± 0.52 | 2.94 ± 0.59 | – | – |
| REEERPLPRRDFQRQVWLLFEYPE [KCNA3] | 2.64 ± 0.43 | 2.67 ± 0.37 | – | – |
| RELEEYRREVERKQKGSEENLDEA [ADD1] | 5.57 ± 0.24 | 5.61 ± 0.17 | – | – |
| REPPQAVSIKEAAGSSNLPAPERT [VENTX] | 5.26 ± 0.3 | 5.2 ± 0.54 | – | – |
| REPVTKAEMLGSVVGNWQYFFPVI [MAGEA3] | 2.17 ± 0.18 | 2.25 ± 0.27 | – | – |
| RETYPRTPYVRWNYVAKNFAQALG [SOAT2] | 2.34 ± 0.34 | 2.17 ± 0.38 | – | – |
| RFNRIGLPPKVGSFQLFVEGYKDA [PI4K2A] | 2.39 ± 0.29 | 2.77 ± 0.51 | – | – |
| RFSSGGACGLGGGYGGGFSSSSSF [KRT16] | 2.38 ± 0.64 | 2.1 ± 0.35 | – | – |
| RFVPSNPIGILTTSYCELLQNKVP [PPTC7] | 2.57 ± 0.29 | 2.51 ± 0.18 | – | – |
| RGFQEENKALWENNKLKLQQKLVI [CBY2] | 3 ± 0.29 | 3.15 ± 0.43 | – | – |
| RGNHESRQITQVYGFYDECLRKYG [PPP2CA] | 2.75 ± 0.4 | 2.59 ± 0.19 | – | – |
| RGNPELARLRPGLAVLGADERIFS [HAGHL] | 3.42 ± 0.47 | 3.65 ± 0.14 | – | – |
| RGRYRQYNSEILEEAISVVMSGKM [LCOR] | 2.54 ± 0.23 | 2.71 ± 0.29 | – | – |
| RHLDFHVKDLIKKLLVVDRTRRLG [PRKX] | 2.57 ± 0.042 | 2.41 ± 0.36 | – | – |
| RIFAQYMVPHNLETTERMKCLYYL [PDS5B] | 2.91 ± 0.62 | 2.36 ± 0.43 | – | – |
| RIPGAWSCAWSLNIQANNCFSTGL [DCAF4] | 2.76 ± 0.94 | 2.69 ± 0.6 | – | – |
| RIPTCHDKPGTTQIVQLTQQVDTN [DENND6A] | 4.6 ± 0.14 | 4.59 ± 0.14 | – | – |
| RKHIIEGLKASLERLQLEYVDVVF [KCNAB2] | 2.94 ± 0.58 | 3 ± 0.53 | – | – |
| RKKDKTWMHTPEALSKHFIPYNAK [GULP1] | 2.82 ± 0.25 | 2.99 ± 0.47 | – | – |
| RKMSLLKFLAKVNGSDPRSFPLWY [MAGEA10] | 2.38 ± 0.63 | 2.01 ± 0.22 | – | – |
| RKSMLDAGPDSWGSDAEQSTSGQP [LCOR] | 5.21 ± 0.091 | 5.15 ± 0.24 | – | – |

| Sequence | protein stability index [1] | protein stability index [2] | protein stability index (treatment: DMSO, c terminus: native) | protein stability index (treatment: MLN4924 1 uM, 8 h, c terminus: native) |
| --- | --- | --- | --- | --- |
| RLCLVCGDIASGYHYGVASCEACK [ESRRG] | 4.15 ± 0.12 | 4.21 ± 0.18 | – | – |
| RLHLAFKRQVPTEQARAYAEKNCM [RAB40C] | 2.98 ± 0.15 | 3.1 ± 0.26 | – | – |
| RLKRTRLGLDDFESLKVIGRGAFG [STK38L] | 2.49 ± 0.22 | 2.7 ± 0.31 | – | – |
| RLPCSFVTLALLGSYTVQSELGDY [EPB41L3] | 2.91 ± 0.56 | 2.48 ± 0.35 | – | – |
| RLPESVERLTGVSISQVNHKPLRT [FLOT1] | 4.06 ± 0.13 | 4.16 ± 0.32 | – | – |
| RLPTDSHFPYDLHLRSQSLTMQDE [NEUROD6] | 4.32 ± 0.14 | 4.34 ± 0.16 | – | – |
| RLSTSPVRLAARQEDAPMIEPLVP [EPB41L3] | 4.6 ± 0.18 | 4.63 ± 0.43 | – | – |
| RNVRFSDEGGFTCFFRDHSYQEEA [MOG] | 3.54 ± 0.35 | 3.75 ± 0.59 | – | – |
| RPRTRKVKSVSPQGNSVDRMAAPR [NCF4] | 4.85 ± 0.15 | 4.795 ± 0.046 | – | – |
| RQDADAWTLYKILDSCKQLTLAQG [SMG5] | 2.29 ± 0.26 | 2.32 ± 0.083 | – | – |
| RQGNPSWKKQQKCDECGKIFSQSS [ZNF396] | 3.57 ± 0.33 | 3.92 ± 0.11 | – | – |
| RQIIKLNRRLQLLEEENKERAKRE [MFF] | 3.81 ± 0.36 | 4.18 ± 0.23 | – | – |
| RRDEQDDDDKGDSKETRLTLMEEV [GOLPH3] | 5.58 ± 0.23 | 5.51 ± 0.2 | – | – |
| RRDGKWQNVHFHRSGSPTVPIKPP [CAMK2D] | 3.32 ± 0.27 | 3.54 ± 0.4 | – | – |
| RRGIALIFNHERFFWHLTLPERRG [CASP6] | 2.75 ± 1.6 | 2.04 ± 0.68 | – | – |
| RRKQRYWPFSMDCTGTEAHISSCK [LOXL2] | 3.17 ± 0.49 | 3.52 ± 0.57 | – | – |
| RRLEQRWGFGLEELYGLALRFFKE [ACBD3] | 2.53 ± 0.8 | 2.31 ± 0.63 | – | – |
| RRPEDQELESLSAIEAELEKVAHQ [CHGA] | 5.15 ± 0.09 | 5.3 ± 0.24 | – | – |
| RRYLEKSIKMGKRNGLHLPEQVQN [NLN] | 3.2 ± 0.42 | 3.23 ± 0.23 | – | – |
| RSDGKTCAKLDSCALGDHGCEHSC [MATN2] | 4.54 ± 0.31 | 4.59 ± 0.32 | – | – |
| RSRIEEQSQLICILKRRSDEALER [CCDC89] | 3.86 ± 0.12 | 3.76 ± 0.23 | – | – |
| RSSALWSEMLDITMKESLTTREIR [NET1] | 3.13 ± 0.23 | 3.23 ± 0.23 | – | – |
| RSSGSEGTPADTGDLSPGHGASAP [PWWP2B] | 5.38 ± 0.34 | 5.35 ± 0.2 | – | – |

| Sequence | protein stability index [1] | protein stability index [2] | protein stability index (treatment: DMSO, c terminus: native) | protein stability index (treatment: MLN4924 1 uM, 8 h, c terminus: native) |
| --- | --- | --- | --- | --- |
| RVAKKLQSGLVWTNCWLIRELNLP [ALDH8A1] | 2.5 ± 0.38 | 2.37 ± 0.54 | – | – |
| RVQGGCYRFDSSSCSSEDNLSLVC [DRICH1] | 2.58 ± 0.43 | 2.62 ± 0.32 | – | – |
| RVYDGREILTCGRDGEPEPMQKLQ [RBBP5] | 4.02 ± 0.38 | 3.94 ± 0.31 | – | – |
| RWASAPPLYTLIDVLKYSYVRLVC [ZSWIM9] | 2.6 ± 0.45 | 3.01 ± 0.74 | – | – |
| RWETSSWSECSRTCGEGYQFRVVR [ADAMTSL2] | 2.5 ± 0.84 | 2.21 ± 0.35 | – | – |
| RWNPWSTEVPYATFTEHPMKYTSE [TPRG1] | 3 ± 0.6 | 2.74 ± 0.24 | – | – |
| RYDHGTFFPMGDEGASSQIGRAAG [HDAC6] | 4.24 ± 0.37 | 4.13 ± 0.22 | – | – |
| RYHNSHPLRERARKLSQGILIIRF [YJU2B] | 3.08 ± 0.35 | 2.67 ± 0.45 | – | – |
| SAASSAAAGEPLECPTCGHSYNVT [RNF208] | 4.87 ± 0.27 | 4.77 ± 0.24 | – | – |
| SAASTSFQPQPVQPQQGYIPPMAQ [ZNF207] | 4.3 ± 0.17 | 4.38 ± 0.1 | – | – |
| SAHRALYRRHVLGIVLQGPALCFA [TMEM175] | 2.71 ± 0.62 | 2.58 ± 0.62 | – | – |
| SAMAENILAAACESETRKAAKRMR [NOL4L] | 4.32 ± 0.2 | 4.69 ± 0.46 | – | – |
| SAQNGLASSLPAEVHSLTLSPPEQ [PLAGL1] | 5 ± 0.15 | 5.03 ± 0.22 | – | – |
| SCAPSASIPKLKLTRPVPAGADLP [PWWP2B] | 3.21 ± 0.25 | 3.35 ± 0.27 | – | – |
| SCEACKAFFKRTIQGNIEYSCPAT [ESRRG] | 2.46 ± 0.25 | 2.64 ± 0.37 | – | – |
| SCSEICYTFIIVPKMLVDLLSQKK [OR10K2] | 2.91 ± 0.77 | 2.71 ± 0.79 | – | – |
| SDLGLLRLCTWLLALSPDLSLSNA [FANCE] | 3.08 ± 0.33 | 3.17 ± 0.47 | – | – |
| SDMDRNKTILGNAHDNSEELERAR [ANKRD44] | 5.58 ± 0.16 | 5.57 ± 0.3 | – | – |
| SEDRTVRVWLKRDSGQYWPSVYHA [WDFY2] | 2.27 ± 0.12 | 2.37 ± 0.21 | – | – |
| SEEYRAPRPQSEESWDEEDKRNYP [CHGB] | 5.47 ± 0.19 | 5.42 ± 0.3 | – | – |
| SELSEHLRDPLTSLSHTELEAAEV [FCHSD1] | 5.22 ± 0.16 | 5.32 ± 0.13 | – | – |
| SETDFETEPETAPTTEPETEPEDD [GNAS] | 5.69 ± 0.19 | 5.581 ± 0.055 | – | – |
| SFALYLAGFCMFVLSLVKKHYRLQ [CDS1] | 2.25 ± 0.36 | 2.04 ± 0.44 | – | – |

| Sequence | protein stability index [1] | protein stability index [2] | protein stability index (treatment: DMSO, c terminus: native) | protein stability index (treatment: MLN4924 1 uM, 8 h, c terminus: native) |
| --- | --- | --- | --- | --- |
| SFANDRENYDIIKTYHYLYLAMLE [FEM1B] | 2.44 ± 1.1 | 2.33 ± 0.61 | – | – |
| SFLFLGCSHSFLLAVMGYDRYIAI [OR10K2] | 3.14 ± 0.21 | 2.83 ± 0.59 | – | – |
| SFSEEGAVGYSSDSETLDLEEAEG [NFE2L1] | 5.75 ± 0.38 | 5.18 ± 0.5 | – | – |
| SGLSFITFICYVASSASAFLTAPL [CMTM3] | 3.15 ± 0.49 | 2.96 ± 0.3 | – | – |
| SGYMEGYYTFHFLYFKDKIFNVAI [FBXO3] | 3.36 ± 0.48 | 2.75 ± 0.15 | – | – |
| SHECKPEGYEFCHNRKVLTIFSAS [PPEF2] | 2.73 ± 0.38 | 2.76 ± 0.17 | – | – |
| SHEDVCVFKCSVSRETECSRVGKQ [CARM1] | 4.11 ± 0.25 | 4.12 ± 0.31 | – | – |
| SHLPTRSPSFPEAPDSGRSAPYSA [TBX6] | 4.61 ± 0.21 | 4.52 ± 0.28 | – | – |
| SHLVIHNLFEGMIWFIVPISCVIC [CDS2] | 3.09 ± 0.45 | 2.81 ± 0.2 | – | – |
| SHSRERPYKCVQPDCGKAFVSRYK [PLAGL1] | 3.34 ± 0.23 | 3.37 ± 0.17 | – | – |
| SINAGSWMWLSCSSFFQQFFHCYC [CRY1] | – | 3.4 ± 0.11 | – | – |
| SINVLLMMHGLKPLSLVKRTDLKD [CEP70] | 2.6 ± 0.6 | 2.59 ± 0.78 | – | – |
| SIPNLAEVKKKGKMKKLGQAMEED [HDAC6] | 4.8 ± 0.088 | 4.86 ± 0.44 | – | – |
| SIQVRRKPQHGVCSQLLGNYRCL [SERPINB9P1] | – | – | 2.69 ± 0.51 | 3.09 ± 0.18 |
| SLALDIDRDAEDQNRYLDGMVRAH [BET1L] | 4.24 ± 0.17 | 4.39 ± 0.31 | – | – |
| SLDTLLEAVESRGGVPGGCVLVPR [SMAD6] | 3.23 ± 0.17 | 3.23 ± 0.25 | – | – |
| SLENSLREVEARYALQMEQLNGIL [KRT18] | 2.15 ± 0.23 | 2.52 ± 0.26 | – | – |
| SLGASPTVAGIVGSSYGILQLFSS [MFSD9] | 2.08 ± 0.35 | 2.17 ± 0.47 | – | – |
| SLGYGTNVAATGISQYEDDLPPPP [APBB1IP] | 4.86 ± 0.44 | 4.87 ± 0.42 | – | – |
| SLKVKFFDLERENACATKEQKNHT [PLD5] | 4 ± 0.36 | – | – | – |
